# In IntAct's records for PubMed 18256285:
# Target: sdcb1_human SDCBP (UniProt O00560)
# UniProt O00560, sequence (O00560 whole entry): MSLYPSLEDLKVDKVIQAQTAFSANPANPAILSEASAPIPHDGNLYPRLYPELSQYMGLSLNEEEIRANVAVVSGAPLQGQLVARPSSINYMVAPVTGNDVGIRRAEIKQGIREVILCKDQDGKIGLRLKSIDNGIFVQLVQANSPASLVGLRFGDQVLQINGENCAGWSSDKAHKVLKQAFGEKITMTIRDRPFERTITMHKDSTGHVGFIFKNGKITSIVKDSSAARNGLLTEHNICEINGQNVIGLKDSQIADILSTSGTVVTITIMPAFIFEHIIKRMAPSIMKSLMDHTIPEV
row,Substance,effect of a mutation on the interaction
1,Frizzled-7 (Homo sapiens) (from UniProt O75084) V574A,decreasing interaction
2,Frizzled-7 (Homo sapiens) (from UniProt O75084) T572A;V574A,disrupting interaction
3,Frizzled-7 (Homo sapiens) (from UniProt O75084) T572A,disrupting interaction
